Test: label from the status in PepcDB records

MTTQTIDSAPHATWFVGASYGGTDDQMPRFLAEGIWENGYDDKLLEVVRSMRPGERIAIKSSYTRKHGLPFDSRGRAVSVMGIKAVGTITENLNDGKRVKVDWAKVEPVREWYFYTHRATIWRVLPGEWMNDALIAFAFDGKPQDVDRFRNEPFWRERYGTTSPEKQRFEWTDFYEAVAEKLLAHADDRTPLIEGIHEIASRVPGLTYLQDKFPDGTSGPLRDICPFTTMGTFNRSMTDANRKTLAGELAKLLGVTVPVPPSFEGIPVLNNQRSWFFAYADKRGAGDIDALWKVFVAASKMVDGDQLDTRDAFIRAYDEATQVWGVAWNLSTGLYWAHPWEFLTLDSQSRHYINKRLGLNVAISGQQGPCDGRAYLKLLDDLRSRFGEDGYPVHSFPDLSLASWMYKDPVDEPVPAGDIGTNAGAEQETEGEVREAFQVAAPIVPYSVEDILKDGCFLERAEIDRLLDRLRTKKNLILQGPPGTGKTWLAKRLAFALMGQKDDSKVRAVQFHPNLSYEDFVRGWRPTGEGKLSLADGVFMEAIKAASKDPSSKFVVVIEEINRGNPAQIFGELLTLLEAGKRTPNEALELCYPDADGKRRPVHIPENLYVVGTMNIADRSLALVDLALRRRFAFVGLEPRLGQVWRDWVVKECAVDPGLVADIERRIAELNDQIAADARLGKQFRIGHSYVTPAHRLEAGDTKKWFLQVVETEIGPLLDEYWFDAPDEAQKAIARLTQGWLEHHHHHH
protein production: not failed

MEYTVHTPSFRYHDLPYQDCLNKVGTVTLQDYRDDLVALIESLNQPPLLLGHSLGFLVAQMAAKKIEIDGMIFM
protein production: failed

MADSENMYILSEDEDVCPTCLEEYTSENPKIVTKCSHHFHLSCIYEWMERSENCPVCGKVMEFNETP
protein production: failed

MASSSSSPTPSAAAAVSPLTEEELTLTVKWNGKEYTVRICADDSVAELKRRICLLTTVLPKRQKLLYPKIGNKLSDDSLLLSSISFKPSLKMTMIGTVEDDIIVDQAESPEIVDDFELGKEEAVDVKDKEVNKQKLRRRIDQYKINLRTPCRQGKKLLVLDIDYTLFDHRSTAENPLQLMRPYLHEFLTAAYAEYDIMIWSATSMKWVELKMTELGVLNNPNYKVTALLDHLAMITVQSDTRGIFDCKPLGLIWALLPEFYNPGNTIMFDDLRRNFVMNPQNGLTIKPFRKAHANRDTDQELVKLTQYLLTIAELSDLSSLHHSRWESFSQDNVKRRRQE
protein production: failed

MSQIWFERILRWRKKAQRFLQGRYARFDELNRTLLLTSVVLALINIFTGYLWVRLLILITVAYVYYRFFSKHIHPRLNENQWFILRKQRLMQKVHAFRKRHMTQKEYRYFKCPKCQQSLRAPKGRGTIKVTCSNCQNQFIKKV
protein production: failed

MSLQENISVTDSYSTGNAAQAMLEKLLQIYDVKMLVAQLNGVGENHWSAAILKRALANDSAWHRLSEKEFAHLQTLLPKPPEHHPHYAFRFIDLFAGIGGIRRGFESIGGQCVFTSEWNKHAVRTYKANHYCDPATHHFNEDIRDITLSHQEGVSDEAAAEHIRQHIPEHDVLLAGFPCQPFSLAGVSKKNSLGRAHGFACDTQGTLFFDVVRIIDARRPAMFVLENVKNLKSHDKGKTFRIIMQTLDELGYDVADAEDNGPDDPKIIDGKHFLPQHRERIVLVGFRRDLNLKADFTLRDISECFPAQRVTLAQLLDPMVEAKYILTPVLWKYLYRYAKKHQARGNGFGYGMVYPNNPQSVTRTLSARYYKDGAEILIDRGWDMATGEKDFDDPLNQQHRPRRLTPRECARLMGFEAPGEAKFRIPVSDTQAYRQFGNSVVVPVFAAVAKLLEPKIKQAVALRQQEAQHGRRSREGHHHHHH
protein production: not failed

MIRMTVKVPHPLRVVAVSGGMQRPSKSVALAEHLLALIAEQLPCERHLVEIGALAPQFAGAPWRSHLPGSVEQALALVEQADVLVVATPVYRGSFTGLFKHFFDFIDQDALVDTPVLLAATGGSDRHALMIDHQLRPLFSFFQARTLPLGVYATDRDFLDYRVHSQALAERASLAVQRALPLIELTRHARSITAQNVAAA
protein production: failed

MEVERKIVSLEALYIVYDADGTVAGELLYLLRKWLGKGHCAACDITHGPRKVKPEWTILQKTGWLGVPLFNIHRDEMEPKLRSAVSCALPCVAALVDNGDYVLLLQPEDLESCKGQVSKLQEKIVEALKDFGFQVNESFTSVVTSDLSDTCPSTLDREKEEDDAVVPF
protein production: failed

MGGKLVSFIRSRLEIVQNIAAEDEGCKKAYYCMGSPLFALNAERMENNLVTLSGGISINKQLQKKGKPGVNVSPAFINEHNPEAIFISSFLSRPLNEFYELCQKYGIHADAVKKRQVYAVPAAWDFGNPRWILGLLYITDKLHPGKLEHHHHHH
protein production: failed

MSNTVRAISPDITLFNKTLTFQEISQNTREAVIYIHGGAWNDPENTPNDFNQLANTIKSMDTESTVCQYSIEYRLSPEITNPRNLYDAVSNITRLVKEKGLTNINMVGHSVGATFIWQILAALKDPQEKMSEAQLQMLGLLQIVKRVFLLDGIYSLKELLVEYPEYDCFTRLAFPDGIQMYEEEPSRVMPYVKKALSRFSIDMHLVHSYSDELLTLRQTNCLISCLQDYQLSFKLYLDDLGLHNDVYKNGKVAKYIFDNIC
protein production: not failed

MLKERAGAVSAGLRALDLALVAAAFGLALALRAAVDVPAVPPLLPAGRHLAWLAVALALWPAAAGAAGVYGQYRTRSRREEILRLARAVGLLALGVAAASFLGRDRDLSRLLLLGWNGIALVLLAGSRVAVRTLAHEARRRGHNTRAFAVVGSGPMARAMRQRLLARPEWGFTFAGFVLEEGAPRRGIPGPVLGRVDELAAVLERYVVDLVVFAVPRDRLPGMEAAVAACQEQGVVAKIGLEPFPPRHGRLTVEDLDGIPVLSYASAPQDALPLLAKRAIDVVASALALVVLSPLLAAVALAVRLDSPGPVLFRQRRVGLSGRTFTLYKFRSMRAGAEAEQARLADRNEMDGPVFKLRDDPRVTRVGKVLRRTSLDELPQLWNVLRGEMSLVGPRPPLPDEVRRYERWQRRRLSVKPGLTCTWQVSGRSEVGFGRWMQLDLDYIDRWSLWQDVRIVLRTIPAVLLGRGAR
protein production: failed

MVSRSPFESFQWKSDIFNCESTDIDNFYLLLEQEMTRLGMVEKNLGEVGKYKVSLYQSPAAKSGLPSLLISAGFHGEESAGPWGLLHFLSEASADLFERVNLSLLPLVNPTGFSRGHRFNKYGENPNRGFVFENGKPKANEHTSVEGKLLLDHAQLLIAACRDGILTCHEDVLSREAYVYSFEPSQVPGRFSLDLRDTLGGYFPIAVDGEIDACPVKDGLIFNHFDTSFEACLVRSGARVGACTETPALQNFDQRVLANSAAMTHFLALCAPLCD
protein production: not failed

MTDTHTCLTAKDFTSNQEPKWCPGCGDFMVLQQLKNAMAELCLKTEEVVVVSGIGCSSRLPYYINTYGVHGIHGRAMAMASGLKVARPDLSVWVGTGDGDALSIGGNHYIHTVRRNLDINVVLFNNEIYGLTKGQYSPTSKVGLRTVTSPTGVVDYPINTIALTLGAGGTFVARVMDRDGKLMKEIFKRAHNHKGTSIVEIYQNCPIFNDGAFRAFSDKERKDDTTLYLEQGQPLVFGANGSKGIYLDGFKPTVIDLEKSGVSKDDLWIHDENDLIKANILSRFFDDPNSTEEFLPRPFGIFYVEDRFTYEQALSAQIDKAQEKGEGTLEELLAGNSTWTIN
protein production: failed

MSEPIPPFRYAPIVCSEQSTIVAEFVPEASGVREAGYQSEAELEAAFIKQLQGQAYEYLPITSEAALLANLRRQLEKLNKVTLSDAEWEGFFSTCIAGAHDGIVEKTARIQENHVQVLKRDDGTIKNMCLLDKVNIHNNTLQVMNQYAVEGARANRYDVTVLVNGLPMVHVELKRRGVDIREAFNQINRYQRDSFWAGSGLLDYVQLFVISNGTLTKYYSNTVRAGHVEEQSNKRSKSKTSNSFSFAIWWADAKNQPITELTSFTKTFFAKHSLLNVLTKYCVFNAKRKLLVMRPYQIVAAERILQRIVIATHQQQLGTVAAGGYIWHTTGSGKTLTSFKVAQLACGLGVIDKVLFVVDRKDLDYQTMREYESFQKGAANSNTSTAVLQRQLEDSDVHIIITTIQKLSRFVAKHKQHPVYGAHVVVIFDECHRSQFGDMHTKITRAFQRYHLFGFTGTPIFAENAGSTQNPMRRTTQQTFGDTLHTYTIVDAINDKTVLPFRIDYINTIKSQPNIKDKKVAAIDTERALLAPERIRQIVSYIREHFDQKTKRASIYRHEGQRLAGFNSLLATASIDAAKRYYAELMAQQKELPEARRLKVGLIYSVAANEGGGDGGLGEEEFETEGLDQESRNFLEAAIQDYNALFGTSFDTSADKFQNYYKDVSERLKKRKLDILIVVNMFLTGFDATTLNTLWVDKPLKAHGLIQAYSRTNRILNSVKSYGNIVSFRNLEQETNEALALFGNKDAKGIVLLRPYAEYYKQYEERVGELMAAFPLGKAIVGEAAQKAFITLFGSILRLKNILTAFDDFGGQEILTEREFQDYQSLYLNLYAEFRSASAAEKESINDDVVFEIELIKQVEINVDFILLLVEQYVKKKGTGEDKDIRATIERAIHSSPSLRNKKELIEQFVDAVSMKAKVDAQWQAFVAVKQSQELEGIIAEENLNAEAAREFIGNAFRDGGIPAMGTAITKVLPPVSRFSKNNGHAAKKQAVLDKFATFFERYFGLV
protein production: failed

MGILDRFEKGLENVVNGAFAKAFRSQVEPVELAGALRREADNKAAVVSRGRTLTANHYSIELSPTDFDRLSGLENELRSDLRQVIGDHAVEQAYSFVGPVSVEFVEAEDLDTGMYRVVSSTQRPDGSPAAQPANRGGYDPVSRSHNIVGEGQANSGSRPVPPRRTPEPAPARPAATSRPASAPVRQAAPARSRTISASVTIHGQDYELHQGTNVFGRSSSSSDYVIDDPGVSRRHFEITVERDHAVANDLGSTNGTLLRGRKLTSANLSDGDVLMAGDAEVRYHENEQDAQ
protein production: failed

MDHHHHHHHHMPRTTGMNVAVVGGGISGLAVAHHLRSRGTDAVLLESSARLGGAVGTHALAGYLVEQGPNSFLDREPATRALAAALNLEGRIRAADPAAKRRYVYTRGRLRSVPASPPAFLASDILPLGARLRVAGELFSRRAPEGVDESLAAFGRRHLGHRATQVLLDAVQTGIYAGDVEQLSVAATFPMLVKMEREHRSLILGAIRAQKAQRQAALPAGTAPKLSGALSTFDGGLQVLIDALAASLGDAAHVGARVEGLAREDGGWRLIIEEHGRRAELSVAQVVLAAPAHATAKLLRPLDDALAALVAGIAYAPIAVVHLGFDAGTLPAPDGFGFLVPAEEQRRMLGAIHASTTFPFRAEGGRVLYSCMVGGARQPGLVEQDEDALAALAREELKALAGVTARPSFTRVFRWPLGIPQYNLGHLERVAAIDAALQRLPGLHLIGNAYKGVGLNDCIRNAAQLADALVAGNTSHAP
protein production: not failed

KMMVLYNETSGSSESKEIAERFKKAAEARGEAVILQPSNPDIDPEEMRKNAKENQVGVLVVIGGDGTIHHAVQNFKDTIRDYQIGIIPGGTVNNFARVLSIPLKEEDAFETILAGQTTPVDFGMVNQD
protein production: not failed

MEDLKGSHGLGLKIQLSRVCEVKPEVKPLPAGETPSCGFARLDRRCLCGHRATLIPLGLPIAPRPPPSRCPFLKPSLPYVPGPEYGKQRPSCPVPIMSEVTKELLELVWGTKSSPGLSDTIFCRWTQGFVFSDSEGSALEQFEGGPCAVIAPVQAFLLKKLLFSSEKSSWRDCSEDEQKELLCHTLCDILESACDSSGSYCMVSWLRGRTTEDAARISGSPAQSSCQVGHSSALAVEELGFERFHALIQKRSFRTVSELKDAVLDQYSMWGNKFGVLLFLYSVLLTKGIENIKNSIEDANEPLIDPVYGHGSQSLINLLLTGHAVSNVWDGDRECSGMQLLGIHEQATVGFLTLMEALRYCKVGSYLKSPKFPIWIVGSETHLTVFFAKDMALVAPEAPSEQARRVFQTYDPEDNGFIADTLLEDVMKALDLVSDPEYINLMKNKLDPEGLGIILLGPFLQEFFPDQGSSGPESFTVYHYNGLKQSNYNEKVMYVEGTAVVMGFEDPMLQTDDTPIKRCLQTKWPYIELLWTTDRSPSLN
protein production: failed

MDPNTVSSFQVDCFLWHVRKRLADQELGDAPFLDRLRRDQKSLRGRGNTLGLDIETATRAGKQIVERILEEEPDEALKMPASRYLTDMTLEEMSRDWFMLMPKQKVAGSLCIKMDQAIMDKTIILKANFSVILDRLETLILLRAFTEEGAIVGEISPLPSLPGHTGEDVKNAIGVLIGGLEWNDNTVRVSETIQRFAWRSSDEDGRLPLPPNQKRKMARTIESEV
protein production: not failed
